Data published in patent US20210246451, “APTAMER FOR ADAMTS5 AND USE FOR APTAMER FOR ADAMTS5” (RIBOMIC INC., published 2021).

T1: ADAMTS5 (UniProt Q9UNA0 Q9UNA0:262-622)
T1 sequence: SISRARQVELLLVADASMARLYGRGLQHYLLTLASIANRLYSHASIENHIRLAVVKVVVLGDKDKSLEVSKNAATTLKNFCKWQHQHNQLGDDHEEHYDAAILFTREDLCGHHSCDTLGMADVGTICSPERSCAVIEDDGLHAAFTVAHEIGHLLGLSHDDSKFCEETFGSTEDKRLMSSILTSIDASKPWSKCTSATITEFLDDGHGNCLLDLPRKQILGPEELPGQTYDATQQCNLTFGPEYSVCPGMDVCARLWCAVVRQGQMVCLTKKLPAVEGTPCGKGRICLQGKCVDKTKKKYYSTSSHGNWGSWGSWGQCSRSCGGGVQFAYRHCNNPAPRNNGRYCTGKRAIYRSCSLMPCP


biological target: T1, ADAMTS5; assay: SPR; RU ratio >=40%; settings: tags: R&D Systems

Binder	binding result
GGGUAUUGGGGCCUCCACGCAAUGGUGCUGGACUAAACCAACUCGA (ssRNA, 2'-F pyrimidines) [SEQ ID NO: 40]	binds
GGGUAUUGGGGCCUCCACAUGGAUACAUUGGACUAAACCAACUCGA (ssRNA, 2'-F pyrimidines) [SEQ ID NO: 41]	binds
GGGUAUUGGGGCCUCCACAGAUAAUUCUUGGACUAAACCAACUCGA (ssRNA, 2'-F pyrimidines) [SEQ ID NO: 42]	binds
GGGUAUUGGGGCCUCCACAGAAAAUUCUUGGACUAAACCAACUCGA (ssRNA, 2'-F pyrimidines) [SEQ ID NO: 43]	binds
GGGUAUUGGGGCCUCCACAGAACUUUCUUGGACUAAACCAACUCGA (ssRNA, 2'-F pyrimidines) [SEQ ID NO: 44]	binds
GGGUAUUGGGGCCUCCACAGAAAAGUCUUGGACUAAACCAACUCGA (ssRNA, 2'-F pyrimidines) [SEQ ID NO: 45]	binds

biological target: T1, ADAMTS5; assay: inhibition; 30 nM; settings: tags: R&D Systems
Protocol: (§1) Whether an aptamer having the nucleotide sequence shown in SEQ ID NO: 1 inhibits the enzyme activity of ADAMTS5 was evaluated by the following method. As a substrate of ADAMTS5, the G1-IGD-G2 domain of aggrecan (manufactured by R&D systems) was used. ADAMTS5 specifically cleaves in between the 392nd glutamic acid and the 393rd alanine in the G1-IGD-G2 domain and produces two fragments. These fragments have faster electrophoretic mobility than uncleaved G1-IGD-G2. Thus, the enzyme activity of ADAMTS5 can be measured by quantifying the band intensity of G1-IGD-G2 by SDS-PAGE electrophoresis. The assay was performed in a solution A buffer with a reaction mixture volume of 10 μL. First, a mixture (10 μL) of a nucleic acid and ADAMTS5 was prepared and incubated at 25° C. for 15 min. To a substrate solution (5 μL) diluted with solution A was added a mixture (5 μL) of the nucleic acid and ADAMTS5 to start the enzyme reaction. The final concentration of ADAMTS5 in the reaction solution was 5 nM, and the final substrate concentration was 50 μg/mL. The reaction solution was incubated at 37° C. for 2 hr, 2 μL of solution D was added, and the mixture was heated at 95° C. for 2 min to stop the enzyme reaction of ADAMTS5. Solution D contains 0.25 M tris (pH 6.8), 10% SDS, 50% glycerol, 0.25% bromo phenolblue, and 20% 2-mercaptoethanol. The heat-treated reaction solution was electrophoresed by 7.5% SDS-PAGE and stained with SYPRO Orange (manufactured by Sigma-Aldrich). The staining was performed according to the manual of Sigma-Aldrich and detected using STORM840 manufactured by GE Healthcare. […] The amount of uncleaved substrate in each reaction solution was quantified from the band intensity and the standard curve. The substrate cleavage efficiency of ADAMTS5 under these reaction conditions was 80-100%. The inhibition rate of the test substance was calculated using the following equation.
Whether these aptamers inhibit the enzyme activity of ADAMTS5 was tested by a method similar to that in Example 1. The final concentration of the nucleic acid was fixed to 30 nM in the test.

Binder	activity [% inhibition]
GGCUUGGGGCCUCCACAGCUGCUCAGCUUGGACUAAACCAAGCC (ssRNA, 2'-F pyrimidines) [SEQ ID NO: 4]	23
GGCUUGGGGCCUCCACAGCGCUCGCUUGGACUAAACCAAGCC (ssRNA, 2'-F pyrimidines) [SEQ ID NO: 5]	27
GGCUUGGGGCCUCCACAGCUGUCAGCUUGGACUAAACCAAGCC (ssRNA, 2'-F pyrimidines) [SEQ ID NO: 6]	33.7
GGAUUGGGGCCUCCACAGCGUCGCUUGGACUAAACCAAUCC (ssRNA, 2'-F pyrimidines) [SEQ ID NO: 9]	5.9

biological target: T1, ADAMTS5; assay: inhibition; method 1; settings: tags: R&D Systems
Protocol: as §1
The aptamers having the sequences shown in SEQ ID NOs: 28(l)-28(18) (SEQ ID NO: 28 lineage) and SEQ ID NOs: 29(1)-29(3) (SEQ ID NO: 29 lineage) were all produced by chemical synthesis.

Binder	activity [% inhibition]
CGUAGGGGCCUCCACAGCGUAAGCUUGGACUUAAACCACG (ssRNA, as SEQ 28 plus 2'-OMe at A4) [28(2)]	68.7
CGUAGGGGCCUCCACAGCGUAAGCUUGGACUUAAACCACG (ssRNA, as SEQ 28 plus 2'-OMe at 4,20-22) [28(5)]	77.3
CGUAGGGGCCUCCACAGCGUAAGCUUGGACUUAAACCACG (ssRNA, as SEQ 28 plus 2'-F at A4) [28(6)]	76.8
CGUAGGGGCCUCCACAGCGUAAGCUUGGACUUAAACCACG (ssRNA, as SEQ 28 plus 2'-F at G7) [28(7)]	84.1
CGUAGGGGCCUCCACAGCGUAAGCUUGGACUUAAACCACG (ssRNA, as SEQ 28 plus 2'-F at G8) [28(8)]	71.1
CGUAGGGGCCUCCACAGCGUAAGCUUGGACUUAAACCACG (ssRNA, as SEQ 28 plus 2'-F at A14) [28(9)]	69.7
CGUAGGGGCCUCCACAGCGUAAGCUUGGACUUAAACCACG (ssRNA, as SEQ 28 plus 2'-F at G28) [28(10)]	76.6
CGUAGGGGCCUCCACAGCGUAAGCUUGGACUUAAACCACG (ssRNA, as SEQ 28 plus 2'-F at A29) [28(11)]	42.6
CGUAGGGGCCUCCACAGCGUAAGCUUGGACUUAAACCACG (ssRNA, as SEQ 28 plus 2'-F at A33) [28(12)]	67.8
CGUAGGGGCCUCCACAGCGUAAGCUUGGACUUAAACCACG (ssRNA, as SEQ 28 plus 2'-OMe at 4,20-22,31; 3' idT) [28(13)]	86.1
CGUAGGGGCCUCCACAGCGUAAGCUUGGACUUAAACCACG (ssRNA, as SEQ 28 plus 2'-OMe at 4,20-22,31; 2'-F at G7,G28; 3' idT) [28(14)]	90.6
CGUAGGGGCCUCCACAGCAUUCGCUUGGACACAAACCACG (ssRNA, as SEQ 29 plus 2'-F at G7,G28 and 2'-OMe at A31; 3' idT) [29(2)]	89.8
CGUAGGGGCCUCCACAGCAUUCGCUUGGACACAAACCACG (ssRNA, as SEQ 29 plus 2'-F at G7,G28; 3' idT) [29(3)]	80.9

biological target: T1, ADAMTS5; assay: inhibition; 10 nM; settings: tags: R&D Systems
Protocol: as §1
The nucleic acids shown in SEQ ID NOs: 3(1)-3(16) were all produced by chemical synthesis. Whether these nucleic acids inhibit the enzyme activity of ADAMTS5 was determined by a method similar to that in Example 1.

Binder	activity [% inhibition]
GGAUUGGGGCCUCCACAGCUGCUCAGCUUGGACUAAACCAAUCC (ssRNA, 2'-OMe at 1-7,17-28,36,38-44; 2'-F other pyrimidines) [3(8)]	52.8
GGAUUGGGGCCUCCACAGCUGCUCAGCUUGGACUAAACCAAUCC (ssRNA, 2'-OMe at 1-8,17-28,36,38-44; 2'-F other pyrimidines) [3(9)]	25.8
GGAUUGGGGCCUCCACAGCUGCUCAGCUUGGACUAAACCAAUCC (ssRNA, 2'-OMe at 1-7,9,17-28,36,38-44; 2'-F other pyrimidines) [3(10)]	25.6
GGAUUGGGGCCUCCACAGCUGCUCAGCUUGGACUAAACCAAUCC (ssRNA, 2'-OMe at 1-7,15,17-28,36,38-44; 2'-F other pyrimidines) [3(11)]	48.1
GGAUUGGGGCCUCCACAGCUGCUCAGCUUGGACUAAACCAAUCC (ssRNA, 2'-OMe at 1-7,17-28,30,36,38-44; 2'-F other pyrimidines) [3(12)]	57.5
GGAUUGGGGCCUCCACAGCUGCUCAGCUUGGACUAAACCAAUCC (ssRNA, 2'-OMe at 1-7,17-28,31,36,38-44; 2'-F other pyrimidines) [3(13)]	37
GGAUUGGGGCCUCCACAGCUGCUCAGCUUGGACUAAACCAAUCC (ssRNA, 2'-OMe at 1-7,17-28,32,36,38-44; 2'-F other pyrimidines) [3(14)]	1.2
GGAUUGGGGCCUCCACAGCUGCUCAGCUUGGACUAAACCAAUCC (ssRNA, 2'-OMe at 1-7,17-28,35,36,38-44; 2'-F other pyrimidines) [3(15)]	27.6
GGAUUGGGGCCUCCACAGCUGCUCAGCUUGGACUAAACCAAUCC (ssRNA, 2'-OMe at 1-7,17-28,36-44; 2'-F other pyrimidines) [3(16)]	53.6

biological target: T1, ADAMTS5; assay: inhibition; 10 nM aptamer, aggrecan G1-IGD-G2 cleavage, method 1; settings: tags: R&D Systems
Protocol: as §1
The aptamers having the sequences shown in SEQ ID NOs: 10(1)-10(8) and 11(1)-11(35), SEQ ID NO: 13-15 were all produced by chemical synthesis.

Binder	activity [% inhibition]
AUUGGGGCCUCCACAGCGCUCGCUUGGACUAAACCAAU (ssRNA, 2'-OMe at 1-5,15-26,32-38; 2'-F at 8-12,14,29,30; PS between 11 and 12) [11(22)]	49.8
AUUGGGGCCUCCACAGCGCUCGCUUGGACUAAACCAAU (ssRNA, 2'-OMe at 1-5,15-26,32-38; 2'-F at 8-12,14,29,30; PS between 12 and 13) [11(23)]	47.9
AUUGGGGCCUCCACAGCGCUCGCUUGGACUAAACCAAU (ssRNA, 2'-OMe at 1-5,15-26,32-38; 2'-F at 8-12,14,29,30; PS between 13 and 14) [11(24)]	46.3
AUUGGGGCCUCCACAGCGCUCGCUUGGACUAAACCAAU (ssRNA, 2'-OMe at 1-5,15-26,32-38; 2'-F at 8-12,14,29,30; PS between 26 and 27) [11(26)]	47.2
AUUGGGGCCUCCACAGCGCUCGCUUGGACUAAACCAAU (ssRNA, 2'-OMe at 1-5,15-26,32-38; 2'-F at 8-12,14,29,30; PS between 27 and 28) [11(27)]	48.2
AUUGGGGCCUCCACAGCGCUCGCUUGGACUAAACCAAU (ssRNA, 2'-OMe at 1-5,15-26,32-38; 2'-F at 8-12,14,29,30; PS between 28 and 29) [11(28)]	44.8
AUUGGGGCCUCCACAGCGCUCGCUUGGACUAAACCAAU (ssRNA, 2'-OMe at 1-5,15-26,32-38; 2'-F at 8-12,14,29,30; PS between 29 and 30) [11(29)]	56.5
AUUGGGGCCUCCACAGCGCUCGCUUGGACUAAACCAAU (ssRNA, 2'-OMe at 1-5,15-26,32-38; 2'-F at 8-12,14,29,30; PS between 31 and 32) [11(31)]	56.3
